Experimental data published in patent publication US20160039921A1 (published 2016).

Biological target: T1, recombinant human VEGF165 protein (human, UniProt P15692 27-191)
T1 chain: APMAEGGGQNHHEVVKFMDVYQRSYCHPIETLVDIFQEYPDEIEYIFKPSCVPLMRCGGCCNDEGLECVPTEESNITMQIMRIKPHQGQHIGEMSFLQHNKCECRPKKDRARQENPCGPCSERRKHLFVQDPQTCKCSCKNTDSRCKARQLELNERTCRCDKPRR
Experiment: competitive ELISA (blocking of biotin-VEGF binding to VEGFR1)

- IC50: < 1 nM
B1: murine PV19 monoclonal antibody (antibody, V domains shown)
VH: QPGGAFWMCVSGGKVTISCKASGYSFTNSGINWVKQAPGKGLKWMGWINTYTGEPTYADDFKGRFAFSLETSASSAYLQINNLKNEDTATYFCARFGDGYYWFFDVWGAGTTVTVS
VL: DIVMSQSPSSLAVSAGEKVTLSCKSSQSLLNSRTRKNFLAWYQQKPGQSPKLLIYWASTRESGVPDRFTGSGSGTDFTLTISSVQAEDLAVYYCKQSYNLYTFGGGPT
